[ ]: non-standard residue; d: D form. pS = N[C@@H](COP(=O)(O)O)C(=O)O; FAM = 5,6-carboxyfluorescein; Ahx = NCCCCCC(=O)O
Key:
[1] = biological target: T1, 14‐3‐3τ (human, UniProt P27348 1-245); assay: fluorescence polarisation; fluorescence anisotropy, direct titration: 14-3-3 protein titrated (1/2 dilution series) against 50 nM FAM-Ahx tracer peptide; 10 mM HEPES, 150 mM NaCl, 0.1% Tween 20, 0.1% BSA, pH 7.4; 384 well plates, triplicates; protein concentration as 14-3-3 monomer; 1:1 fit, biphasic curves fitted as two separate 1:1 events (Kd1, Kd2); conditions: both partners purified
T1 construct: 14-3-3 tau/theta, human, full-length protein from the pProEx HTb-His-14-3-3 construct; Written as the protomer; tag removal is told only for the ∆C proteins; also called τ/θ; source: E. coli BL21(DE3), purified (Ni2+-NTA, dialysis)
T1 sequence (looked up): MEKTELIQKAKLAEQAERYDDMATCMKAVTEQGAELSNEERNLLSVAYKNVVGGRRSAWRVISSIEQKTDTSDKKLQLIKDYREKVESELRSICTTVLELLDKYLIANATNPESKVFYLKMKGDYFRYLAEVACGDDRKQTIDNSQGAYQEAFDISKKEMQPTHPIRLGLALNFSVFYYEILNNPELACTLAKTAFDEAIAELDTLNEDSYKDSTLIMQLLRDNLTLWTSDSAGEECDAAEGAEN

[2] = biological target: T2, 14‐3‐3β (human, UniProt P31946 1-246); assay: as above; conditions: both partners purified
T2 construct: 14-3-3 beta, human, full-length protein from the pProEx HTb-His-14-3-3 construct; Written as the protomer; tag removal is told only for the ∆C proteins; source: E. coli BL21(DE3), purified (Ni2+-NTA, dialysis)
T2 sequence (looked up): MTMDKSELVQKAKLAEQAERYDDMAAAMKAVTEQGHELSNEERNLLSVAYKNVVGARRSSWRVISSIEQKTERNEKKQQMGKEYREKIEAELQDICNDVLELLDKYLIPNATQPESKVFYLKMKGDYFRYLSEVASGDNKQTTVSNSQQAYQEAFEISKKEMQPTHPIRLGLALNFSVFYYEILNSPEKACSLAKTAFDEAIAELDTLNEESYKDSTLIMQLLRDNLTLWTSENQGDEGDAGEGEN

B1: FAM‐Ahx‐hDM2_(160‐171) ^pSer166 (peptide)
peptide: {FAM-Ahx}-SRRRAI[pS]ETEEN-NH2
notes: hDM2 (human double minute 2 protein), human, residues 160-171; Tracer form used in the FA assays; also called hDM2_(160‐171) ^Ser166; source: synthetic peptide (Fmoc SPPS, HPLC purified)
Binder B1 has a Kd [1] of 29.3 ± 2.4 µM and a Kd [2] of 11.1 ± 0.5 µM.

B2: FAM‐Ahx‐hDMX_(335‐349) ^pSer342 (peptide)
peptide: {FAM-Ahx}-SKLTHSL[pS]TSDITAI-NH2
notes: hDMX (human double minute 4 protein, hDM4), human, residues 335-349; Tracer form used in the FA assays; source: synthetic peptide (Fmoc SPPS, HPLC purified)
Binder B2 has a Kd [1] of 108 ± 6 µM and a Kd [2] of 49.4 ± 11.5 µM.

B3: FAM‐Ahx‐hDMX_(361‐374) ^pSer367 (peptide)
peptide: {FAM-Ahx}-DCRRTI[pS]APVVRPK-NH2
notes: Tracer form used in the FA assays; source: synthetic peptide (Fmoc SPPS, HPLC purified)
B3 was tested, and the Kd [1] was 1.2 ± 0.2 µM and the Kd [2] was 0.51 ± 0.02 µM.

B4: FAM‐Ahx‐hDM2_(180‐192) ^pSer186 (peptide)
peptide: {FAM-Ahx}-QRKRHK[pS]DSISLS-NH2
notes: hDM2 (human double minute 2 protein), human, residues 180-192; Tracer form used in the FA assays; source: synthetic peptide (Fmoc SPPS, HPLC purified)
For B4, the Kd [1] was > 250 µM and the Kd [2] was 208 ± 6.3 µM.
